Measured values reported in patent publication US20150166663A1.

Assays:
[1] = target: α4β1 integrin on J6.77 cells (UniProt P13612); assay: cell-based or functional assay
[2] = target: human αV on parental A375M cells (αVβ3 and αVβ5) (human) (UniProt P06756); assay: cell-based or functional assay
[3] = target: human αV on parental A375M cells (αVβ3 and αVβ5) (human) (UniProt P06756); assay: FACS, parental A375M cells, day 1
[4] = target: human αV on parental A375M cells (αVβ3 and αVβ5) (human) (UniProt P06756); assay: FACS, parental A375M cells, day 2
[5] = target: cynomolgus αVβ6 on cells (cynomolgus); assay: FACS, HEK-293 cells transfected with cynomolgus αV and β6, day 2
[6] = target: cynomolgus αVβ6 on cells (cynomolgus); assay: FACS, HEK-293 cells transfected with cynomolgus αV and β6, day 1
[7] = target: α5β1 integrin on K562 cells (UniProt P08648); assay: cell-based or functional assay
[8] = target: cynomolgus αVβ6 on cells (cynomolgus); assay: FACS, K562 cells expressing cynomolgus αVβ6 (parental 12)
[9] = target: mouse αVβ6 on cells (mouse) (UniProt P43406); assay: FACS, K562 cells expressing mouse αVβ6 (parental 12)
[10] = target: mouse αVβ6 on cells (mouse) (UniProt P43406); assay: FACS, K562 cells expressing mouse αVβ6 (parental 15)
soluble αVβ6 (human) = soluble αVβ6 (human) (UniProt P06756); assay: ELISA, 1 ug/mL on coated soluble αVβ6
[11] = target: human αV on parental A375M cells (αVβ3 and αVβ5) (human) (UniProt P06756); assay: FACS, 1 ug/ml, parental A375M cells, day 2
[12] = target: human αVβ6 integrin on cells (human) (UniProt P06756); assay: FMAT, 1 ug/mL on HEK 293 cells stably overexpressing αVβ6
[13] = target: human αVβ6 integrin on cells (human) (UniProt P06756); assay: cell-based or functional assay
[14] = target: cynomolgus αVβ6 on cells (cynomolgus); assay: FACS, K562 cells expressing cynomolgus αVβ6 (parental 15)
[15] = target: cynomolgus αVβ6 on cells (cynomolgus); assay: FACS, transiently transfected HEK-293 cells
[16] = target: cynomolgus β6 on transfected HEK-293 cells (cynomolgus); assay: FACS, transiently transfected HEK-293 cells
[17] = target: cynomolgus αVβ6 on cells (cynomolgus); assay: FACS, 1 ug/ml, HEK-293 cells transfected with cynomolgus αV and β6, day 2
[18] = target: human αV on parental A375M cells (αVβ3 and αVβ5) (human) (UniProt P06756); assay: FACS, 1 ug/ml, parental A375M cells, day 1
[19] = target: cynomolgus αVβ6 on cells (cynomolgus); assay: FACS, 1 ug/ml, HEK-293 cells transfected with cynomolgus αV and β6, day 1
[20] = target: cynomolgus αVβ6 on cells (cynomolgus); assay: FACS, K562 cells expressing cynomolgus αVβ6 (parental 46)
[21] = target: mouse αVβ6 on cells (mouse) (UniProt P43406); assay: FACS, K562 cells expressing mouse αVβ6 (parental 46)
[22] = target: mouse αVβ6 on cells (mouse) (UniProt P43406); assay: FACS, K562 cells expressing mouse αVβ6 (parental 23)
[23] = target: cynomolgus αVβ6 on cells (cynomolgus); assay: FACS, K562 cells expressing cynomolgus αVβ6 (parental 23)

human αVβ6 integrin on cells (human), sequence (P06756 31-1048, chain 1 of 2): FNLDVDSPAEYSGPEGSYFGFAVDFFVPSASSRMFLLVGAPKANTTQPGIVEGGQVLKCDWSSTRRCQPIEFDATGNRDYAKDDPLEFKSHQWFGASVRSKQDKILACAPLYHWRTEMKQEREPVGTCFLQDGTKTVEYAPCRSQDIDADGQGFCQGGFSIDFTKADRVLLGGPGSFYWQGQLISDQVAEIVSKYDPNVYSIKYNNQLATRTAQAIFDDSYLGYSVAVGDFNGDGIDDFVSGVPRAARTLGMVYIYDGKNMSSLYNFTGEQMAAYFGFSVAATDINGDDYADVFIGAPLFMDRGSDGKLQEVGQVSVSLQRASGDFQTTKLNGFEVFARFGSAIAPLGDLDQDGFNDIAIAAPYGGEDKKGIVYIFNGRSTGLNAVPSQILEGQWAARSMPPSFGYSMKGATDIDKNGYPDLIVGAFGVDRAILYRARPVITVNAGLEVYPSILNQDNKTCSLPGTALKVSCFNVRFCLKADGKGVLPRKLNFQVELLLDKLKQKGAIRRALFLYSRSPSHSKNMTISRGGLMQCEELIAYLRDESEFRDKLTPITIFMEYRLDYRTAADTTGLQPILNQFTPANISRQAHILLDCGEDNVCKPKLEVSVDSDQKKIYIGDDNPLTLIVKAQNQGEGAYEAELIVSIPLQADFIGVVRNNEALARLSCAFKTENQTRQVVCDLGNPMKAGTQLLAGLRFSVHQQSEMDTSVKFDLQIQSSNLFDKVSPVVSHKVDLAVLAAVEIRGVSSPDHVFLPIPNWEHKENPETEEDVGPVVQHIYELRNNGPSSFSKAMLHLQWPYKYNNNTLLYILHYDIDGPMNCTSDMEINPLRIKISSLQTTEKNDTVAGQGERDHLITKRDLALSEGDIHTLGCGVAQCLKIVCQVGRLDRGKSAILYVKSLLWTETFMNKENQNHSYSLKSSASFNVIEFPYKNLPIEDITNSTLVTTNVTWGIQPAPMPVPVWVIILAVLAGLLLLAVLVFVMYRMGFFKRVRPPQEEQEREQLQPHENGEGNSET
human αVβ6 integrin on cells (human), sequence (P18564 22-788, chain 2 of 2, further chain): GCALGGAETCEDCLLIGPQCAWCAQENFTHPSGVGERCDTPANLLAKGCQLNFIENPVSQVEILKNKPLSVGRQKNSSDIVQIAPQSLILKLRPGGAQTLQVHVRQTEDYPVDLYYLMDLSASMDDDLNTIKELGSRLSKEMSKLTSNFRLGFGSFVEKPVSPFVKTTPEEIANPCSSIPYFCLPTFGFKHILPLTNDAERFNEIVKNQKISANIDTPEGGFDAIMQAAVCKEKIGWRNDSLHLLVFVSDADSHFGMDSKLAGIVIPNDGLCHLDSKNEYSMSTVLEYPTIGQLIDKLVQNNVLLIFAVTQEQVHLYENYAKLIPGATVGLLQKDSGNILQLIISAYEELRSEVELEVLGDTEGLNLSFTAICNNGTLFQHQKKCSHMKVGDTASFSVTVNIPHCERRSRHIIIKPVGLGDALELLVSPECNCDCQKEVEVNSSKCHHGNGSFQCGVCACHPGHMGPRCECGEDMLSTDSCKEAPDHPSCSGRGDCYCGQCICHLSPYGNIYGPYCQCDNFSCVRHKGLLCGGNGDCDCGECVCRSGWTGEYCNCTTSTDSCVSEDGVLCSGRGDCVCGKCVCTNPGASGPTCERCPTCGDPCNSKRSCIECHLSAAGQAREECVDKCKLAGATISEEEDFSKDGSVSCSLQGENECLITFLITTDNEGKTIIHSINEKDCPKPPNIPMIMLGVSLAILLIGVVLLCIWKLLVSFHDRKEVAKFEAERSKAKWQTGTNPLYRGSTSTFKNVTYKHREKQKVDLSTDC
mouse αVβ6 on cells (mouse), sequence (P43406 31-1044, chain 1 of 2): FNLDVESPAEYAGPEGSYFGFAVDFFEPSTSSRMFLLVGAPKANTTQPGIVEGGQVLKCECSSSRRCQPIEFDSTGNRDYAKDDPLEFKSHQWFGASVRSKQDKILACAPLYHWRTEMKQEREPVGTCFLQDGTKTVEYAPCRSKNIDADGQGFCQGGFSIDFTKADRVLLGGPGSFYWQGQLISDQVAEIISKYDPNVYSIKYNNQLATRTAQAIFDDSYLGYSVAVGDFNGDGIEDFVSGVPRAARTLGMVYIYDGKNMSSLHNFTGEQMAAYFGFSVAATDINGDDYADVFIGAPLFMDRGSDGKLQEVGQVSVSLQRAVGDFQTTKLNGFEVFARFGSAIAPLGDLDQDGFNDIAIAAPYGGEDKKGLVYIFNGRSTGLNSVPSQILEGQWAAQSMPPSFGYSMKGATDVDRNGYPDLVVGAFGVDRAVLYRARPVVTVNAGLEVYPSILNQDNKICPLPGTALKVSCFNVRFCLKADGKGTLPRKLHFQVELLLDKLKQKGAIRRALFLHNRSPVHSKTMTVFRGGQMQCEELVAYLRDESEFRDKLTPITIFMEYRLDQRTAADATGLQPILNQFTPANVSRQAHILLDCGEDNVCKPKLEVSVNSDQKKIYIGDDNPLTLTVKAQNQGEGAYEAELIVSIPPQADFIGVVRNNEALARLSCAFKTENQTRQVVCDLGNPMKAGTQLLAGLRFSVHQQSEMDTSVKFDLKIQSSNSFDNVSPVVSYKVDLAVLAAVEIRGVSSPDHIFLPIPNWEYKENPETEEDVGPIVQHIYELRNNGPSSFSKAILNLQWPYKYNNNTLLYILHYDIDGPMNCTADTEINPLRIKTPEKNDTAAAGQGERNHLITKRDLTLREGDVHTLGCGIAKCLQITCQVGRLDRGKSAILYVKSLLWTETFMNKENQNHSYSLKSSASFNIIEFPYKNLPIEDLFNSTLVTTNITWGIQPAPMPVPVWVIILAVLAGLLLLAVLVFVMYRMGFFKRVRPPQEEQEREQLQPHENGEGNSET
mouse αVβ6 on cells (mouse), sequence (Q9Z0T9 22-787, chain 2 of 2, further chain): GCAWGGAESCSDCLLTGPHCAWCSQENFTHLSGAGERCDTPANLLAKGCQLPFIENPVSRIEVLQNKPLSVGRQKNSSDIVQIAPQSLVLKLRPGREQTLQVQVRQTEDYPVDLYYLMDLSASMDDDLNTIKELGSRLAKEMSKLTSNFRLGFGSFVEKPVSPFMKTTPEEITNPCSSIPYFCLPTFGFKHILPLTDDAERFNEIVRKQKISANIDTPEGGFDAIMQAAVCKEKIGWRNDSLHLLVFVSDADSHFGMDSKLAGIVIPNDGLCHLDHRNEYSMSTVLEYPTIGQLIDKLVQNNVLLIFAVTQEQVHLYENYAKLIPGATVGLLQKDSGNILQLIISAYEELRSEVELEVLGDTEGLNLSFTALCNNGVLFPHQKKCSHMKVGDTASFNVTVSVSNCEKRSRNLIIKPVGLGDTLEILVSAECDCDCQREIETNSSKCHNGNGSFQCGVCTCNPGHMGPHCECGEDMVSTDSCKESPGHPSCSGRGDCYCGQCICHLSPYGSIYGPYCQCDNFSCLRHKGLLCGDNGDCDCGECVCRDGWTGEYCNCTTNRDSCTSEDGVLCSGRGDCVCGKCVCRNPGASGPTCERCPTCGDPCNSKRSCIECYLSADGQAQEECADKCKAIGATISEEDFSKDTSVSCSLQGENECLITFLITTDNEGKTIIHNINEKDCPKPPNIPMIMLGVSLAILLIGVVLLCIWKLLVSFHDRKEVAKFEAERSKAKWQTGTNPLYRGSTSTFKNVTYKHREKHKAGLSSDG

Human IgG2 (antibody)
Percent Inhibition, adhesion of J6.77 cells to CS-1 peptide of fibronectin, 5 ug/ml [1]: 13%
Percent Inhibition, adhesion of J6.77 cells to CS-1 peptide of fibronectin, 5 µg/ml [1]: -9%

Human IgG4 (antibody)
Percent Inhibition, adhesion of J6.77 cells to CS-1 peptide of fibronectin, 5 ug/ml [1]: 15%

Mouse IgG Control (antibody)
Percent Inhibition, adhesion of A375M cells to osteopontin peptide, 5 µg/ml [2]: 5%

Mouse IgG2 with Murine Secondary Antibody
A375M % Shifted Cells [3]: 4%
A375M GeoMean [3]: 1.67
A375M % Shifted Cells [4]: 3%
A375M GeoMean [4]: 11.2
Mac AVB6 % Cells Shifted [5]: 0%
Mac AVB6 GeoMean [5]: 11.2
Mac AVB6 % Cells Shifted [6]: 1%
Mac AVB6 GeoMean [6]: 8.85

Human IgG Isotype Control (antibody)
Percent Inhibition, adhesion of A375M cells to osteopontin peptide, 5 µg/ml [2]: 3%
% Inhibition, adhesion of K562 cells to fibronectin [7]: -12%
Percent Inhibition, adhesion of K562 cells to FN9-10 peptide of fibronectin, 5 µg/ml [7]: 11%
A375M % Shifted Cells [3]: 5%
A375M GeoMean [3]: 1.66
A375M % Shifted Cells [4]: 1%
A375M GeoMean [4]: 7.23
Mac AVB6 % Cells Shifted [5]: 0%
Mac AVB6 GeoMean [5]: 7.39
Mac AVB6 % Cells Shifted [6]: 1%
Mac AVB6 GeoMean [6]: 9.54

Mouse IgG1 (antibody)
Geometric Mean Shift (arbitrary units) [8]: 13
Geometric Mean Shift (arbitrary units) [9]: 20

murine αVβ6 antibody (Cat#MAB2077z, Chemicon)
Geometric Mean Shift (arbitrary units) [10]: 122
ELISA OD (soluble αVβ6 (human)): 6 OD
A375M % Shifted Cells [11]: 5%
A375M GeoMean [11]: 15.4
FMAT FL1XCount [12]: 44200
Estimated IC50, adhesion of HT29 cells to TGFβLAP, n = 1 [13]: 226 ng/mL
Estimated IC50, adhesion of HT29 cells to TGFβLAP, n = 2 [13]: 185 ng/mL
Estimated IC50, adhesion of HT29 cells to TGFβLAP, n = 3 [13]: 286 ng/mL
Geometric Mean Shift (arbitrary units) [14]: 84
percent of cells shifted [15]: 20%
percent of cells shifted [16]: 5%
Mac AVB6 % Cells Shifted [17]: 11%
Mac AVB6 GeoMean [17]: 28.1
A375M % Shifted Cells [18]: 30%
A375M GeoMean [18]: 2.03
Mac AVB6 % Cells Shifted [19]: 42%
Mac AVB6 GeoMean [19]: 55.5

Human IgG1 (antibody)
Percent Inhibition, adhesion of J6.77 cells to CS-1 peptide of fibronectin, 5 ug/ml [1]: 26%
Percent Inhibition, adhesion of J6.77 cells to CS-1 peptide of fibronectin, 5 µg/ml [1]: -6%
percent of cells shifted [15]: 0%
percent of cells shifted [16]: 1%
Geometric Mean Shift (arbitrary units) [20]: 54
Geometric Mean Shift (arbitrary units) [21]: 108

Mouse IgG2a (antibody)
Geometric Mean Shift (arbitrary units) [22]: 36
Geometric Mean Shift (arbitrary units) [23]: 25
